Test results reported in patent US7268212B2, “Ligand of G protein-coupled receptor protein and DNA thereof” (Takeda Pharmaceutical Company Limited, priority 2001, dated 2007).
Non-standard residues stand in square brackets, D forms with d. Residues, ends and D or L forms follow the SMILES beside them. No end group written: not given here. Trp(6-Br) = N[C@@H](Cc1c[nH]c2cc(Br)ccc12)C(=O)O; dTrp(6-Br) = N[C@H](Cc1c[nH]c2cc(Br)ccc12)C(=O)O

Key:
[1] = target: T1, GPR7 (Homo sapiens, UniProt P48145); test: Intracellular cAMP production suppression activity on human GPR7-expressed CHO cells; format: cell-based; parameters: The synthetic primers were constructed so as to amplify the gene in the region to be translated to its receptor protein; expressed in transfected cells; host or cells: CHO cells, membrane fraction; details: forskolin-promoted cAMP production; receptor-expressed CHO cells; read-out: IC50 (nM) human GPR7, cAMP production inhibition
T1 sequence (P48145 1-328): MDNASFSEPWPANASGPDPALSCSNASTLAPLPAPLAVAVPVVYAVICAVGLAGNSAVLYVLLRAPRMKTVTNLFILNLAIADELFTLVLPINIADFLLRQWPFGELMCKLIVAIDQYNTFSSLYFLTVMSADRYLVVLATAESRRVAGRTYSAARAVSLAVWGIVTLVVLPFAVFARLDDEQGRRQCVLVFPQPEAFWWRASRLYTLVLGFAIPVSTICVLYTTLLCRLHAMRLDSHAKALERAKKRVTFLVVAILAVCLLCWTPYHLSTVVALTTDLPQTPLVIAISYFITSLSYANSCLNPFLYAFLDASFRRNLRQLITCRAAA
Description: (§1) The intracellular cAMP production suppression activity of peptides associated with various GPR7 ligands on CHO cells, in which human GPR7, bovine GPR8, human GPR8, human GPR8, bovine GPR8 and rat GPR7 were expressed, was examined. […] An assay buffer was prepared by adding 20 mM HEPES, pH7.4, 0.1% bovine serum albumin and 0.2 mM 3-isobutyl-1-methylxanthine (Sigma) to Hanks' Balanced Salt Solution (Gibco BRL). The plate incubated overnight was first washed twice with 150 μl of the assay buffer, and then exchanged with 150 μl of the assay buffer, followed by incubation for 30 minutes at 37° C. in 100% air. By adding 4 μM forskolin to the assay buffer, a buffer for sample dilution was prepared and the stock solution (10^−2 M of 10^−3 M) was diluted with the buffer thus obtained to prepare sample solutions in final concentrations of 10^−6 M, 10^−7 M, 10^−8 M, 10^−9 M and 10^−10 M. The plate incubated with the assay buffer for 30 minutes was taken out. After washing twice with the assay buffer, 50 μl of the assay buffer and then 50 μl of the sample solution were added thereto. Each sample was assayed in triplet. […] A difference between the maximum cAMP level and the cAMP level when each sample was added was calculated and the percentage of cAMP production level promoted by forskolin was worked out, which was made the cAMP production inhibition rate.

[2] = target: T2, bovine GPR7 (Bos taurus, UniProt Q8MJV3); test: Intracellular cAMP production suppression activity on bovine GPR7-expressed CHO cells; format: cell-based; details: forskolin-promoted cAMP production; receptor-expressed CHO cells; read-out: IC50 (nM) bovine GPR7, cAMP production inhibition
T2 construct: expressed in transfected cells; host or cells: CHO cells
T2 sequence (Q8MJV3 1-331): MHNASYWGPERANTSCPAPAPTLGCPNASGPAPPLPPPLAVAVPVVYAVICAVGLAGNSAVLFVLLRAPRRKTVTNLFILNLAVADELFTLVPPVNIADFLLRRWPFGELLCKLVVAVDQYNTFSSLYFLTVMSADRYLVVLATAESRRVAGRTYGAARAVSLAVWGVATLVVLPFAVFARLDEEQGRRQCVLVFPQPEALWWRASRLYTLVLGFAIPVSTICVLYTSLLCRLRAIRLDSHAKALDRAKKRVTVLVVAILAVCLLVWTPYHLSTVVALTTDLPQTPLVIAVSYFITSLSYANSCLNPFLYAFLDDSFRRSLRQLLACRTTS
Description: as §1

[3] = target: T1, GPR7; test: Test on binding inhibition of various peptides against human GPR7-expressed CHO cell membrane fraction; parameters: The synthetic primers were constructed so as to amplify the gene in the region to be translated to its receptor protein; expressed in transfected cells; host or cells: CHO cells, membrane fraction; details: iodine-labeled hGPR7L-23; human GPR7-expressed CHO cell membrane fraction 1 μg/well; room temperature 1.5 hour
Description: A mixture of 20 μl of hGPR7L-23 (SEQ ID NO:1) (0.1 mM or 1 mM), 20 μl of lactoperoxidase (Sigma; prepared using 10 μg/ml and 0.1M HEPES-NaOH pH7.0), 20 μl of Idoine-125 (manufactured by Amersham, MS-30, 74 MBq), 20 μl of 0.005% hydrogen peroxide (manufactured by Wako Pure Chemical Industries, Ltd.) was allowed to stand at room temperature for 20 to 30 minutes. Then, 600 μl of 0.1% TFA was added to the mixture. The mixture was applied to reverse phase HPLC for separation and the peaks of the two'labeled products were fractionated in a tube charged with 1 mL of DMSO. Immediately, the fraction was stored on ice and an aliquot was provided for measurement of the radioactivity with a γ-counter. The remaining preparation was dispensed and stored at −30° C.
Human GPR7-expressed CHO cells were cultured in a flask. The flask was washed with 5 mM EDTA/PBS to strip the cells off. The cells were stripped off with 5 mM EDTA/PBS and centrifuged for recovery. The recovered cells were suspended in 25 mL of a buffer for preparing membrane fraction (50 mM Tris-HCl, pH7.5, 5 mM EDTA, 0.1% bovine serum albumin (manufactured by Sigma), 0.5 mM PMSF (manufactured by Wako Pure Chemical Industries, Ltd.), 20 μg/mL leupeptin (manufactured by Peptide Research Institute), 0.1 μg/mL pepstatin A (manufactured by Peptide Research Institute) and 4 μg/mL E-64 (manufactured by Peptide Research Institute)), followed by homogenization on ice using a polytron (12,000 rpm, 15 seconds×3 times). The homogenate was centrifuged at 4° C. under 1,000 g for 10 minutes with a high speed cooling centrifuge to recover the supernatant. […] The pellets were recovered and suspended in a small quantity of the buffer for preparing membrane fractions. […]
Using the assay buffer, the human GPR7-expressed CHO cell membrane fraction was diluted in a final concentration of 1 μg/well and iodine-labeled hGPR7L-23 (SEQ ID NO:1) was diluted in a final concentration of […]. […] After 50 μl of a liquid scintillator was dispensed thereto, the radioactivity was counted on a Top Count (Packard) and the data was analyzed in triplet (FIG. 33). […]

[4] = target: T1, GPR7; details: reported by O'Dowd, B. F. et al.; cited from earlier work
[5] = target: T3, human GPR7 (human); test: competition, radioligand
T3 chain: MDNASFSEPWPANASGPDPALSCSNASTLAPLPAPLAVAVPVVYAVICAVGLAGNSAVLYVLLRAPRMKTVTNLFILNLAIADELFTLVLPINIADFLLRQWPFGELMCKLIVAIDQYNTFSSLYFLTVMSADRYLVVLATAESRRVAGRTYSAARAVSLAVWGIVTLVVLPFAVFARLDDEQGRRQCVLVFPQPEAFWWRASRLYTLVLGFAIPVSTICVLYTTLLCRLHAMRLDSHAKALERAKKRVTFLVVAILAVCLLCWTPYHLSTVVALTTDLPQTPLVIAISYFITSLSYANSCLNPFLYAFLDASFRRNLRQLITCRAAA

WYKPAAGSHHYSVGRAAGLLSSFH [Trp1-rat GPR7L(24)]
IC50 [1]: 0.31 nM

WYKPAAGSHHYSVGRAAGLLSSFHRFPST [Trp1-rat GPR7L(29)]
IC50 [2]: 1.2 nM
IC50 [3]: 0.34 nM

CC(C)C[C@H](NC(=O)CNC(=O)[C@H](C)NC(=O)[C@H](C)NC(=O)[C@H](CCCNC(=N)N)NC(=O)CNC(=O)[C@@H](NC(=O)[C@H](CO)NC(=O)[C@H](Cc1ccc(O)cc1)NC(=O)[C@H](Cc1ccc(O)cc1)NC(=O)CNC(=O)[C@H](CCC(N)=O)NC(=O)CNC(=O)[C@H](C)NC(=O)[C@@H](NC(=O)[C@@H]1CCCN1C(=O)[C@H](CCCCN)NC(=O)[C@H](Cc1ccc(O)cc1)NC(=O)[C@@H](N)Cc1c[nH]c2cc(Br)ccc12)[C@@H](C)O)C(C)C)C(=O)N[C@@H](CC(C)C)C(=O)N[C@@H](CO)C(=O)NCC(=O)N[C@@H](Cc1ccccc1)C(=O)N[C@@H](Cc1c[nH]cn1)C(=O)N[C@@H](CCCNC(=N)N)C(=O)N[C@@H](CO)C(=O)N1CCC[C@H]1C(=O)N[C@@H](Cc1ccc(O)cc1)C(=O)N[C@@H](C)C(=O)O [LTrp(6Br)1-bovine GPR7L(29)] (H-[Trp(6-Br)]YKPTAGQGYYSVGRAAGLLSGFHRSPYA-OH; N-terminus and C-terminus assumed)
IC50 [3]: 0.34 nM
IC50 [1]: 0.58 nM

β-endorphin
inhibition of [3H] bremazocine binding to the membrane fraction of GPR7 [4]: inhibited

WYKPTAGQGYYSVGRAAGLLSGFHRSPYA [Trp1-bovine GPR7L(29)]
IC50 [5]: 310 pM

B1: DTrp(6Br)1-human GPR7L(29) (peptide)
chain: WYKPAAGHSSYSVGRAAGLLSGLRRSPYA
modifications: not fully specified (residue 1); printed as D-Trp(6Br)-Tyr-Lys-Pro-Ala-Ala-Gly-His-Ser-Ser-Tyr-Ser-Val-Gly-Arg-Ala-Ala-Gly-Leu-Leu-Ser-Gly-Leu-Arg-Arg-Ser-Pro-Tyr-Ala
IC50 [5]: 13000 pM

WYKPAAGHSSYSVGRAAGLLSGLRRSPYA [Trp1-human GPR7L(29)]
IC50 [5]: 330 pM

WYKPAAGSHHYSVGRAAGLLSSFH [Trp1-rat GPR7L(24)]
IC50 [5]: 300 pM

[dTrp(6-Br)]YKPTAGQGYYSVGRAAGLLSGFHRSPYA [DTrp(6Br)1-bovine GPR7L(29)]
IC50 [5]: 6100 pM

WYKHVASPRYHTVGRAAGLLMGL [Trp1-human GPR8L(23)]
IC50 [5]: 400 pM

[Trp(6-Br)]YKPAAGHSSYSVGRAAGLLSGLRRSPYA [LTrp(6Br)1-human GPR7L(29)]
IC50 [5]: 320 pM

WYKPAAGSHHYSVGRAAGLLSSFHRFPST [Trp1-rat GPR7L(29)]
IC50 [5]: 340 pM

[Trp(6-Br)]YKPTAGQGYYSVGRAAGLLSGFHRSPYA [LTrp(6Br)1-bovine GPR7L(29)]
IC50 [5]: 340 pM

WYKPAAGHSSYSVGRAAGLLSGL [Trp1-human GPR7L(23)]
IC50 [5]: 1600 pM
